Two substances from article PMC9547787 can be followed below.

One assay concerns the target SUV39H2 (UniProt Q9H5I1). As to the kind of experiment: proximity ligation assay (PLA). The conditions noted are these: MO3.13 cells; n: EV = 14; H3.1WT = 36; H3.1K27M = 67; H3.3WT = 60; H3.3K27M = 62; parent: est. 1.2; read off a plot.
The target of another assay is MECP2. As to the kind of experiment: BioID (streptavidin pulldown, LC-MS/MS). The conditions noted are these: Flp-In T-Rex HEK293 cells; parent: est. 17; read off a plot.
For another assay, the target named is BAZ2A. As to the kind of experiment: BioID (streptavidin pulldown, LC-MS/MS). The conditions noted are these: Flp-In T-Rex HEK293 cells; parent: est. 220; read off a plot.
A further assay deals with MBD3. Nature of the assay: BioID (streptavidin pulldown, LC-MS/MS). The note with it: Flp-In T-Rex HEK293 cells; parent: est. 41; read off a plot.
The target in another assay is MBD4. Nature of the assay: BioID (streptavidin pulldown, LC-MS/MS). The note with it: Flp-In T-Rex HEK293 cells; parent: est. 14; read off a plot.

Sequence of UniProt Q9H5I1 (Q9H5I1 whole entry): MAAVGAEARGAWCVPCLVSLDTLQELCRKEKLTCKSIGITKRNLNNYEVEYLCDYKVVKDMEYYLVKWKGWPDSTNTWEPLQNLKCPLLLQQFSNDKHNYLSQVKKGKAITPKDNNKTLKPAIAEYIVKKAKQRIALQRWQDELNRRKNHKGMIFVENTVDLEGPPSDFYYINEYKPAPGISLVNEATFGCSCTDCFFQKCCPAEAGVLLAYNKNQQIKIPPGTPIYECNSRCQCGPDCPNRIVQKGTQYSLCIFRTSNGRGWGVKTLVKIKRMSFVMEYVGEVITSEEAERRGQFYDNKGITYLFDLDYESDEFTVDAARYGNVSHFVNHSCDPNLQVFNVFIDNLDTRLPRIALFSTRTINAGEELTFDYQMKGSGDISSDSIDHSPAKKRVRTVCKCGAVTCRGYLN

With “H3.1WT-FLAG/HA (from UniProt P68431) K27M”, in the assay with SUV39H2, the response (relative foci (relative to H3.3WT)) is 0.54.

Take “H3.3WT (FLAG-BirA* fusion, BioID bait) (from UniProt P84243) G34R”: the response (peptide count) with MECP2 turned out to be 4.1; with BAZ2A, 83; in the assay with MBD3 it was 23; with MBD4, 13.
